Glycan Yield (ug), released glycans measured by phenol sulphuric total carbohydrate assay and N-glycans in fecal samples (nano-HPLC-Chip-TOF) compared with the lactoferrin N-glycan library (out of 18 N-glycans) data for two molecules are collected here from patent US20220273733A1.

The target of assay [1] is soymeal proteins (ethanol-precipitated, heat-denatured soy-meal protein mixture).
Assay [2] concerns the target lactoferrin (glycosylated, of human milk) (human) (UniProt P02788).

B1: EndoBI-1 (endo-β-N-acetylglucosaminidase from B. infantis), enzyme solution used in Example 1 (enzyme)
chain: DAVSPTQETIQSTGRHFMVYYRAWRDVTMKGVNTDLPDDNWISMYDIPYGVDVVNIFSYVPSGQEEQAQPFYDKLKSDYAPYLHSRGIKLVRGIDYTGVAVNGFRTFMKEQNKTESEATEADYDAYAKQVIDKYMISVGLDGLDIDMEAHPNDADVKISDNVIRALSKHIGPKSAKPDTTMFLYDTNGSYLNPFKNVAECFDYVAYQQYGSSSDRTARAAADYQPYIGNEFVPGLTFPEEGDMNNRWYDATEPYEESHFYQVASYVREHNLGGMFVYALDRDGRNYDEDLRRIVPSNLLWTKTAIAESEGMALDTAKTAANHYLDRMSLRQVIDDNAASADKARDMVGKAANLYETNKAVLGGDYGEGFSNTYDPTLEAGLLGIDISVLQQQIDKSSEIIGADTAESDAKTALRMARDAAIDGLTGKIYTADQVSAWSQALKAALDATVPVPTPDSTDQNGNRDKVTNHKVQGQPKQLSATGISTDIIVAVGVTLAIAGVALSLSRKLS
Turning to B1, the Glycan Yield (ug), released glycans measured by phenol sulphuric total carbohydrate assay in assay [1] stood at 75 µg.

B2: EndoBI-1 of B. infantis EVC001 as acting in the gut of EVC001-fed infants (enzyme)
chain: DAVSPTQETIQSTGRHFMVYYRAWRDVTMKGVNTDLPDDNWISMYDIPYGVDVVNIFSYVPSGQEEQAQPFYDKLKSDYAPYLHSRGIKLVRGIDYTGVAVNGFRTFMKEQNKTESEATEADYDAYAKQVIDKYMISVGLDGLDIDMEAHPNDADVKISDNVIRALSKHIGPKSAKPDTTMFLYDTNGSYLNPFKNVAECFDYVAYQQYGSSSDRTARAAADYQPYIGNEFVPGLTFPEEGDMNNRWYDATEPYEESHFYQVASYVREHNLGGMFVYALDRDGRNYDEDLRRIVPSNLLWTKTAIAESEGMALDTAKTAANHYLDRMSLRQVIDDNAASADKARDMVGKAANLYETNKAVLGGDYGEGFSNTYDPTLEAGLLGIDISVLQQQIDKSSEIIGADTAESDAKTALRMARDAAIDGLTGKIYTADQVSAWSQALKAALDATVPVPTPDSTDQNGNRDKVTNHKVQGQPKQLSATGISTDIIVAVGVTLAIAGVALSLSRKLS
On to B2, for which the N-glycans in fecal samples (nano-HPLC-Chip-TOF) compared with the lactoferrin N-glycan library (out of 18 N-glycans) in assay [2] was determined as 14.
